In one assay the target is T1, GST-E2 300–360 (Epstein-Barr virus, UniProt P12978 300-360).
T1 construct: source: E. coli BL21 (DE3) pLys, purified (GST-sepharose)
T1 sequence: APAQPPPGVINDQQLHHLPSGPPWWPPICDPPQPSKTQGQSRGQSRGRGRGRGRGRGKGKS
In words: pull-down. Particulars: one partner purified.

Assay [1] deals with T2, EBNA2 from the transfected expression vector (pSG5-EBNA2, E2) (Epstein-Barr virus, UniProt P12978 1-487).
T2 sequence (looked up): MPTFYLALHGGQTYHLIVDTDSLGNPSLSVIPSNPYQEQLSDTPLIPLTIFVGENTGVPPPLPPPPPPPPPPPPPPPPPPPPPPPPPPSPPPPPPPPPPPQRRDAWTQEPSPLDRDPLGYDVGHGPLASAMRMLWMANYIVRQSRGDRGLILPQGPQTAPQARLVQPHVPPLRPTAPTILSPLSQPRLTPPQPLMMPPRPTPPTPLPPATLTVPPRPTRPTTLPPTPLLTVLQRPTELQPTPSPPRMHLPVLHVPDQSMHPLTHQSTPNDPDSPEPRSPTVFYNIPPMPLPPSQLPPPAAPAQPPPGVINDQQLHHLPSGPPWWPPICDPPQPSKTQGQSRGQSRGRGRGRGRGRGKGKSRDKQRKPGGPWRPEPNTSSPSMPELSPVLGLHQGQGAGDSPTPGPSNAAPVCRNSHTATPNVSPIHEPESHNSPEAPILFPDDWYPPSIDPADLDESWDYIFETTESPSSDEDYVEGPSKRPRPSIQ
In words: cell-based or functional assay.

B1: flag-tagged NPM1 truncated deletion mutant C2 (1–194) (domain or fragment, UniProt P06748 1-194, looked up)
chain: MEDSMDMDMSPLRPQNYLFGCELKADKDYHFKVDNDENEHQLSLRTVSLGAGAKDELHIVEAEAMNYEGSPIKVTLATLKMSVQPTVSLGGFEITPPVVLRLKCGSGPVHISGQHLVAVEEDAESEDEEEEDVKLLSISGKRSAPGGGSKVPQKKVKLAADEDDDDDDEEDDDEDDDDDDFDDEEAEEKAPVKK
notes: source: BJAB, transfected, in lysate
B1: the “percent of input pulled down” value with GST-E2 300–360 was about 2%. Also, the “co-activation of EBNA2-dependent LMP1-Luc reporter activity in BJAB cells” value in assay [1] came out at 2.5 fold.

B2: flag-tagged NPM1 truncated deletion mutant C3 (1–120) (domain or fragment, UniProt P06748 1-120, looked up)
chain: MEDSMDMDMSPLRPQNYLFGCELKADKDYHFKVDNDENEHQLSLRTVSLGAGAKDELHIVEAEAMNYEGSPIKVTLATLKMSVQPTVSLGGFEITPPVVLRLKCGSGPVHISGQHLVAVE
notes: also called N-terminal oligomerization domain (OD); source: BJAB, transfected, in lysate
For the molecule B2, the “percent of input pulled down” value with GST-E2 300–360 was about 2%. Also, in assay [1], the “co-activation of EBNA2-dependent LMP1-Luc reporter activity in BJAB cells” value worked out at 2.5 fold.
